Test results: patent US20240101707A1, “A METHOD OF PREVENTING, ALLEVIATING OR TREATING A TUMOR” (JIANGSU ALPHAMAB BIOPHARMACEUTICALS CO., LTD., priority 2021, published 2024)

Target: T1, Human PD-L1 (WT) (human, UniProt Q9NZQ7 19-127, limits assumed)
T1 construct: also called human PD-L1 N-terminal IgV domain
Assay: affinity measurement, method not stated

T1 sequence (Q9NZQ7 19-127 limits assumed): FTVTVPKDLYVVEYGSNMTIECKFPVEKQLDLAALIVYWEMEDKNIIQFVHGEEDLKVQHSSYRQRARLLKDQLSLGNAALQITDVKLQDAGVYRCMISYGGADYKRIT

B1: PD-L1 ISVD-9 (VHH)
VHH: QVQLVESGGGLVQPGGSLRLSCAASGKMSSRRCMAWFRQAPGKERERVAKLLTTSGSTYLADSVKGRFTISRDNSKNTVYLQMNSLRAEDTAVYYCAADSFEDPTCTLVTSSGAFQYWGQGTLVTVSS
notes: also called ISVD specific for PD-L1
- Kd: 5.92 nM
